Experimental data from IntAct's records for PubMed 29039417.

B1: BBSome complex member BBS5 (Homo sapiens), Q8N3I7 (parent)
chain: MSVLDALWEDRDVRFDLSAQQMKTRPGEVLIDCLDSIEDTKGNNGDRGRLLVTNLRILWHSLALSRVNVSVGYNCILNITTRTANSKLRGQTEALYILTKCNSTRFEFIFTNLVPGSPRLFTSVMAVHRAYETSKMYRDFKLRSALIQNKQLRLLPQEHVYDKINGVWNLSSDQGNLGTFFITNVRIVWHANMNDSFNVSIPYLQIRSIKIRDSKFGLALVIESSQQSGGYVLGFKIDPVEKLQESVKEINSLHKVYSASPIFGVDYEMEEKPQPLEALTVEQIQDDVEIDSDGHTDAFVAYFADGNKQQDREPVFSEELGLAIEKLKDGFTLQGLWEVMS
partner: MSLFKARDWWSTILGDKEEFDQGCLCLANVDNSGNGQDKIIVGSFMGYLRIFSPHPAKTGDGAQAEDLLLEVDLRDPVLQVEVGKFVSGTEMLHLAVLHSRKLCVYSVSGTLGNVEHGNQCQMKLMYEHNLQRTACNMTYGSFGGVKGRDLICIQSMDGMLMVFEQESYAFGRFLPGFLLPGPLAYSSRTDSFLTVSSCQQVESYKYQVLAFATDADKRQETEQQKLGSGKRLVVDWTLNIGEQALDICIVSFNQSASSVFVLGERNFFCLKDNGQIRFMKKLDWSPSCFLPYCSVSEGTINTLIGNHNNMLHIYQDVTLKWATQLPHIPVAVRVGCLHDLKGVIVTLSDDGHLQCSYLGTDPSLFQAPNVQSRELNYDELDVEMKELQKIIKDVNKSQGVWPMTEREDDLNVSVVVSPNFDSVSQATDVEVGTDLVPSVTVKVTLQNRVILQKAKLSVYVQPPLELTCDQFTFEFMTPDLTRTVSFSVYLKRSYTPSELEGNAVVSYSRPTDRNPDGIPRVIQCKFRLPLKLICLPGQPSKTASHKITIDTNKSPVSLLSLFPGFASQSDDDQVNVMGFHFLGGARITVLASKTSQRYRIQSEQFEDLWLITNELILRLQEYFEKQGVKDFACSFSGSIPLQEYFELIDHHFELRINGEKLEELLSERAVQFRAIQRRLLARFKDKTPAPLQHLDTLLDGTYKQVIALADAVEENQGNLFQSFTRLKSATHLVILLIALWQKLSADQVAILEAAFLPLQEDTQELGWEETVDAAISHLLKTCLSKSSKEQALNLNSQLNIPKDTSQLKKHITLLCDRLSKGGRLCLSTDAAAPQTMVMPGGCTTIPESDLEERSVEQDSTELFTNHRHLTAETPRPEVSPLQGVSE

Variants of: B1
Conditions: with pthb1_human BBS9, Q3SYG4

Row | effect of a mutation on the interaction | Variant
1 | with no effect | S61E
2 | with no effect | S61K
3 | disrupting interaction strength | S61F
4 | with no effect | S61A
5 | with no effect | L62A
6 | with no effect | L62E
7 | with no effect | L62K
8 | with no effect | V67A
9 | with no effect | V67E
10 | with no effect | V67K
11 | with no effect | L58A
12 | with no effect | L58E
13 | disrupting interaction strength | L58K
14 | with no effect | V71K
15 | with no effect | V71E
16 | with no effect | V71A
17 | with no effect | L64A
18 | with no effect | L64K
19 | with no effect | L64E
20 | disrupting interaction strength | R56E
21 | disrupting interaction strength | R56K
22 | disrupting interaction strength | R56A
23 | disrupting interaction strength | R56G
24 | with no effect | N78A

Row | effect of a mutation on the interaction | Variant
25 | with no effect | L77A
26 | with no effect | L77K
27 | with no effect | L77E
28 | with no effect | W59K
29 | with no effect | W59A
30 | with no effect | W59E
31 | with no effect | V69E
32 | with no effect | V69K
33 | with no effect | V69A
34 | with no effect | S65A
35 | with no effect | S65K
36 | with no effect | S65E
37 | with no effect | S70E
38 | with no effect | S70K
39 | with no effect | S70A
40 | with no effect | H60E
41 | with no effect | H60A
42 | with no effect | H60K
43 | with no effect | G72A
44 | disrupting interaction strength | G72S
45 | with no effect | G72E
46 | with no effect | G72K
47 | with no effect | C75E
48 | with no effect | C75A

Row | effect of a mutation on the interaction | Variant
49 | with no effect | C75K
50 | with no effect | N68K
51 | with no effect | N68E
52 | disrupting interaction strength | N68A
53 | with no effect | I76A
54 | with no effect | I76K
55 | disrupting interaction strength | I76T
56 | disrupting interaction strength | I76E
57 | with no effect | Y73K
58 | with no effect | Y73E
59 | with no effect | Y73A
60 | with no effect | I57E
61 | with no effect | I57K
62 | with no effect | I57A
63 | with no effect | N74A
64 | with no effect | N74E
65 | with no effect | N74K
66 | with no effect | A63E
67 | with no effect | A63K
68 | with no effect | R66E
69 | with no effect | R66K
70 | with no effect | R66A

More lines, now with the values behind:

Row | Variant | effect of a mutation on the interaction
71 | C33K | with no effect
72 | C33A | with no effect
73 | C33E | with no effect
74 | G45A | with no effect
75 | G45E | with no effect
76 | G45K | with no effect
77 | D35K | with no effect
78 | D35E | with no effect
79 | D35A | with no effect
80 | R49K | with no effect
81 | R49A | with no effect
82 | R49E | with no effect
83 | S36A | with no effect
84 | S36K | with no effect
85 | S36E | with no effect
86 | T53K | with no effect
87 | T53E | with no effect
88 | T53A | with no effect
89 | L51K | with no effect
90 | L51E | with no effect
91 | L51A | with no effect
92 | V29E | with no effect
93 | V29K | disrupting interaction strength
94 | V29A | disrupting interaction strength
95 | E28K | disrupting interaction strength
96 | E28A | disrupting interaction strength

Row | Variant | effect of a mutation on the interaction
97 | L50E | with no effect
98 | L50K | with no effect
99 | L50A | disrupting interaction strength
100 | G27R | disrupting interaction strength
101 | G27K | with no effect
102 | G27A | disrupting interaction strength
103 | G27E | disrupting interaction strength
104 | L55F | disrupting interaction strength
105 | L55K | with no effect
106 | L55E | disrupting interaction strength
107 | L55A | disrupting interaction strength
108 | I37K | with no effect
109 | I37E | with no effect
110 | I37A | with no effect
111 | N44A | with no effect
112 | N44E | with no effect
113 | N44K | with no effect
114 | N54K | with no effect
115 | N54A | with no effect
116 | N54E | disrupting interaction strength
117 | K23A | with no effect
118 | K23E | with no effect
119 | L34A | with no effect
120 | L34K | with no effect
121 | L34E | with no effect
122 | I31K | with no effect

Row | Variant | effect of a mutation on the interaction
123 | I31A | disrupting interaction strength
124 | I31E | with no effect
125 | D39A | with no effect
126 | D39K | with no effect
127 | D39E | with no effect
128 | E38A | with no effect
129 | E38K | with no effect
130 | N43E | with no effect
131 | N43A | with no effect
132 | N43K | with no effect
133 | G42A | with no effect
134 | G42K | with no effect
135 | G42E | disrupting interaction strength
136 | G48E | with no effect
137 | G48S | disrupting interaction strength
138 | G48K | with no effect
139 | G48A | with no effect
140 | T40A | with no effect
141 | T40E | with no effect
142 | T40K | with no effect
143 | L30A | with no effect
144 | L30P | disrupting interaction strength
145 | L30E | with no effect
146 | L30K | with no effect
147 | D32A | with no effect
148 | D32K | with no effect

Row | Variant | effect of a mutation on the interaction
149 | D32E | with no effect
150 | D32G | disrupting interaction strength
151 | K41E | with no effect
152 | K41A | with no effect
153 | T24E | with no effect
154 | T24A | with no effect
155 | T24K | with no effect
156 | D46N | disrupting interaction strength
157 | D46E | with no effect
158 | D46A | with no effect
159 | D46K | with no effect
160 | R25A | with no effect
161 | R25K | disrupting interaction strength
162 | R25E | disrupting interaction strength
163 | P26E | disrupting interaction strength
164 | P26K | with no effect
165 | P26A | with no effect
166 | V52A | with no effect
167 | V52K | disrupting interaction strength
168 | V52E | with no effect
169 | R47K | with no effect
170 | R47E | with no effect
171 | R47A | with no effect
